The record followed here is US20200353062A1, “PHARMACEUTICAL COMPOSITIONS, METHODS FOR PREPARATION COMPRISING SIZING OF LIPID VESICLE PARTICLES, AND USES THEREOF” (IMMUNOVACCINE TECHNOLOGIES INC., priority 2017, published 2020).

A short description of series [1]: Peptide assay and peptide impurities by RP-HPLC. The format is physicochemical. Particulars: for Peptide Content by RP-HPLC / Peptide Impurities by RP-HPLC (% Area): compositions from sized lipid vesicle particles. Here is the method: Identification and quantification of peptides was performed using a reversed-phase HPLC (RP-HPLC) method. The method utilizes an Agilent 1100 Series HPLC system equipped with a Phenomenex Luna 5 μm C8(2) column. The mobile phase is a gradient of 16-37% (v/v) acetonitrile in 0.1% (v/v) aqueous trifluoroacetic acid. Column temperature is maintained at 50° C., and UV-PDA detection is performed at 215 nm. The assay may also be used to identify peptide impurities. The tests were validated to the extent required for a phase 1/2 clinical phase study (data not included).

Series [2] in a line: Lipid assay and degradant limit test by RP-HPLC. Particulars: for Lipid Impurities (HPLC) / Lipid Impurities (RP-HPLC): % of DOPC area; for Lipid Impurities (RP-HPLC): solubilized Batch #4 in vials, room temperature.
Setting [3] is: sized-vesicle preparation stored at 5° C. ± 3° C., 0 months.
The mark [4] stands for this setting: sized-vesicle preparation stored at 5° C. ± 3° C., 3 months.
The mark [5] stands for this setting: sized-vesicle preparation stored at 5° C. ± 3° C., 6 months.
[6] abbreviates: sized-vesicle preparation stored at 5° C. ± 3° C., 9 months.
Setting [7] is: sized-vesicle preparation stored at 5° C. ± 3° C., 12 months.
The mark [8] stands for this setting: sized-vesicle preparation stored at 5° C. ± 3° C., 18 months.
The mark [9] stands for this setting: sized-vesicle preparation stored at −20° C. ± 5° C., 0 months.
[10] abbreviates: sized-vesicle preparation stored at −20° C. ± 5° C., 6 months.
The mark [11] stands for this setting: sized-vesicle preparation stored at −20° C. ± 5° C., 12 months.
Where [12] appears, read: sized-vesicle preparation stored at −20° C. ± 5° C., 18 months.
Setting [13] is: compositions from sized lipid vesicle particles, individual Vial 1-5.
Where [14] appears, read: solubilized Batch #4 in syringe, t = 60 min.
Where [15] appears, read: compositions from sized lipid vesicle particles, Average (n = 5).

Where “and” joins values, the source holds several entries; their conditions need not be identical. Identical values can stand only once. Where no end group is shown, it is not given here. [ ]: non-standard residue; d: D form. Met(O) = CS(=O)CC[C@H](N)C(=O)O

On to “STFKNWPFL (Survivin HLA-A24) [SurA24, survivin peptide antigen [HLA-A24]]”, for which the “Peptide Content by RP-HPLC” value in series [1] (Average (n = 5)) was 0.93 mg/mL; in series [1] (individual Vial 1-5), 0.92 mg/mL and 0.94 mg/mL and 0.93 mg/mL and 0.91 mg/mL and 0.95 mg/mL. Moreover, the “Peptide Assay (RP-HPLC)” value in series [1] (setting [3]) is given as 1.00 mg/mL; in series [1] (setting [4]), 0.98 mg/mL; in series [1] (setting [5]) it was 0.98 mg/mL; in series [1] (setting [6]), 0.95 mg/mL; in series [1] (setting [7]) it was 0.95 mg/mL; in series [1] (setting [8]) it was 0.99 mg/mL. Besides, the “Peptide Assay (RP-HPLC)” value in series [1] (setting [9]) is on record as 1.00 mg/mL; in series [1] (setting [10]) it was 0.99 mg/mL; in series [1] (setting [11]), 0.97 mg/mL; in series [1] (setting [12]), 1.00 mg/mL.
For `CCCCCCCC/C=C\CCCCCCCC(=O)O` [Oleic Acid, oleic acid], the “DOPC degradants by RP-HPLC” value in series [2] (setting [13]) was 0.60 mg/mL and 0.50 mg/mL; in series [2] (setting [14]), 0.60 mg/mL. Besides, the “Lipid Degradants (RP-HPLC)” value in series [2] (setting [3]) was 0.3 mg/mL; in series [2] (setting [4]) it was 0.2 mg/mL; in series [2] (setting [5]), 0.2 mg/mL; in series [2] (setting [6]) it was 0.4 mg/mL; in series [2] (setting [7]) it was 0.2 mg/mL; in series [2] (setting [8]), 0.2 mg/mL. The “Lipid Degradants (RP-HPLC)” value turned out to be 0.3 mg/mL in series [2] (setting [9]), 0.3 mg/mL in series [2] (setting [10]), 0.2 mg/mL in series [2] (setting [11]) and 0.3 mg/mL in series [2] (setting [12]).
Consider `CC(C)CCC[C@@H](C)[C@H]1CC[C@H]2[C@@H]3CC=C4C[C@@H](O)CC[C@]4(C)[C@H]3CC[C@]12C` [Cholesterol, cholesterol], for which the “Lipid Content by RP-HPLC” value is 11.36 mg/mL in series [2] (setting [15]); 11.20 mg/mL and 11.62 mg/mL and 11.48 mg/mL and 11.44 mg/mL and 11.05 mg/mL in series [2] (setting [13]). Also, the “Lipid Assay (RP-HPLC)” value in series [2] (setting [3]) came out at 11.03 mg/mL; in series [2] (setting [4]) it was 11.30 mg/mL; in series [2] (setting [5]), 12.26 mg/mL; in series [2] (setting [6]), 12.11 mg/mL; in series [2] (setting [7]), 12.00 mg/mL; in series [2] (setting [8]), 12.25 mg/mL. For the same molecule, the “Lipid Assay (RP-HPLC)” value in series [2] (setting [9]) worked out at 11.03 mg/mL; in series [2] (setting [10]) it was 12.14 mg/mL; in series [2] (setting [11]) it was 11.10 mg/mL; in series [2] (setting [12]), 12.85 mg/mL.
In the case of “RRT 3.66 LMLGEFLKL (M oxidized to sulfoxide; SEQ ID NO: 2): peptide impurity: LMLGEFLKL with M oxidized to sulfoxide (L[Met(O)]LGEFLKL)”, the “Peptide Impurities by RP-HPLC (% Area)” value in series [1] (Average (n = 5)) is 0.55%; in series [1] (individual Vial 1-5), 0.65% and 0.40% and 0.53% and 0.58% and 0.57%.
“LPPAWQPFL (Survivin HLA-B7) [SurB7, survivin peptide antigen [HLA-B7]]”: the “Peptide Content by RP-HPLC” value in series [1] (Average (n = 5)) was 1.09 mg/mL; in series [1] (individual Vial 1-5), 1.07 mg/mL (2×) and 1.11 mg/mL (2×) and 1.08 mg/mL. The “Peptide Assay (RP-HPLC)” value in series [1] (setting [3]) is 1.09 mg/mL; in series [1] (setting [4]), 1.01 mg/mL; in series [1] (setting [5]), 1.00 mg/mL; in series [1] (setting [6]), 1.00 mg/mL; in series [1] (setting [7]) it was 0.99 mg/mL; in series [1] (setting [8]), 1.03 mg/mL. Further, the “Peptide Assay (RP-HPLC)” value in series [1] (setting [9]) worked out at 1.09 mg/mL; in series [1] (setting [10]), 1.01 mg/mL; in series [1] (setting [11]) it was 1.01 mg/mL; in series [1] (setting [12]), 1.03 mg/mL.
In the case of “LMLGEFLKL (Survivin HLA-A2 (modified)) [SurA2.M, survivin peptide antigen [HLA-A2]]”, the “Peptide Content by RP-HPLC” value in series [1] (Average (n = 5)) is 1.14 mg/mL; in series [1] (individual Vial 1-5), 1.11 mg/mL and 1.14 mg/mL (2×) and 1.15 mg/mL and 1.18 mg/mL. The “Peptide Assay (RP-HPLC)” value is on record as 0.95 mg/mL in series [1] (setting [3]); 0.91 mg/mL in series [1] (setting [4]); 0.91 mg/mL in series [1] (setting [5]); 0.89 mg/mL in series [1] (setting [6]); 0.88 mg/mL in series [1] (setting [7]); 0.91 mg/mL in series [1] (setting [8]). Besides, the “Peptide Assay (RP-HPLC)” value is 0.95 mg/mL in series [1] (setting [9]), 0.92 mg/mL in series [1] (setting [10]), 0.89 mg/mL in series [1] (setting [11]) and 0.91 mg/mL in series [1] (setting [12]).
Consider “FTELTLGEF (Survivin HLA-A1 (modified)) [SurA1.T, survivin peptide antigen [HLA-A1]]”, for which the “Peptide Content by RP-HPLC” value was 1.09 mg/mL in series [1] (Average (n = 5)); 1.07 mg/mL (2×) and 1.10 mg/mL and 1.09 mg/mL and 1.11 mg/mL in series [1] (individual Vial 1-5). Further, the “Peptide Assay (RP-HPLC)” value in series [1] (setting [3]) was found to be 1.03 mg/mL; in series [1] (setting [4]), 1.02 mg/mL; in series [1] (setting [5]), 1.03 mg/mL; in series [1] (setting [6]), 1.02 mg/mL; in series [1] (setting [7]), 0.97 mg/mL; in series [1] (setting [8]) it was 1.07 mg/mL. In addition, the “Peptide Assay (RP-HPLC)” value in series [1] (setting [9]) is 1.03 mg/mL; in series [1] (setting [10]), 1.04 mg/mL; in series [1] (setting [11]), 0.99 mg/mL; in series [1] (setting [12]), 1.04 mg/mL.
For “RISTFKNWPK (Survivin HLA-A3 (modified)) [SurA3.K, survivin peptide antigen [HLA-A3], added after sizing]”, the “Peptide Content by RP-HPLC” value in series [1] (Average (n = 5)) is 0.89 mg/mL; in series [1] (individual Vial 1-5) it was 0.86 mg/mL and 0.90 mg/mL and 0.91 mg/mL and 0.88 mg/mL and 0.92 mg/mL. Moreover, the “loss in content from the nominal target limit in the final bulk” value in series [1] (peptide combined with lipid mixture before size extrusion (retained by extruder membrane)) is “approximately 25%”. For the same molecule, the “Peptide Assay (RP-HPLC)” value in series [1] (setting [3]) amounted to 1.04 mg/mL; in series [1] (setting [4]), 0.99 mg/mL; in series [1] (setting [5]), 0.93 mg/mL; in series [1] (setting [6]) it was 0.92 mg/mL; in series [1] (setting [7]), 0.93 mg/mL; in series [1] (setting [8]), 1.02 mg/mL. For the same molecule, the “Peptide Assay (RP-HPLC)” value in series [1] (setting [9]) came out at 1.04 mg/mL; in series [1] (setting [10]), 0.98 mg/mL; in series [1] (setting [11]) it was 0.97 mg/mL; in series [1] (setting [12]), 1.02 mg/mL.
Consider `CCCCCCCC/C=C\CCCCCCCC(=O)O[C@H](COC(=O)CCCCCCCCCCCCCCC)COP(=O)([O-])OCC[N+](C)(C)C` [POPC], for which the “Lipid Impurities (HPLC)” value in series [2] (solubilized Batch #4 in syringe, t = 0) turned out to be 2.10%; in series [2] (solubilized Batch #4 in syringe, t = 30 min) it was 2.91%; in series [2] (setting [14]), 2.94%. In addition, the “Lipid Impurities (RP-HPLC)” value is on record as 2.65% in series [2] (t = 0), 1.21% in series [2] (t = 4 h) and 1.04% in series [2] (t = 24 h). Besides, the “Lipid Impurities (% Area)” value in series [2] (setting [15]) was 2.65%; in series [2] (setting [13]), 2.79% and 2.62% and 2.63% and 2.61% and 2.59%.
With `CCCCCCCC/C=C\CCCCCCCC(=O)OC[C@H](COP(=O)([O-])OCC[N+](C)(C)C)OC(=O)CCCCCCC/C=C\CCCCCCCC` [DOPC, 1,2-Dioleoyl-sn-glycero-3-phosphocholine], the “Lipid Content by RP-HPLC” value in series [2] (setting [15]) is 119.03 mg/mL; in series [2] (setting [13]), 117.39 mg/mL and 121.44 mg/mL and 120.26 mg/mL and 120.00 mg/mL and 116.07 mg/mL. In addition, the “Lipid Assay (RP-HPLC)” value in series [2] (setting [3]) is 118.41 mg/mL; in series [2] (setting [4]), 112.91 mg/mL; in series [2] (setting [5]), 124.60 mg/mL; in series [2] (setting [6]), 130.11 mg/mL; in series [2] (setting [7]), 120.00 mg/mL; in series [2] (setting [8]) it was 121.35 mg/mL. For the same molecule, the “Lipid Assay (RP-HPLC)” value is 118.41 mg/mL in series [2] (setting [9]), 123.60 mg/mL in series [2] (setting [10]), 102.63 mg/mL in series [2] (setting [11]) and 128.00 mg/mL in series [2] (setting [12]).
